Results on 4 molecules are retold here after publication PMC12951562 (2026).

Non-standard residues stand in square brackets, D forms with d. No end group written: not given here. pY = N[C@@H](Cc1ccc(OP(=O)(O)O)cc1)C(=O)O

In one experiment the target is T1, Ac-pYEEIE-NH2 (SMILES CC[C@H](C)[C@H](NC(=O)[C@H](CCC(=O)O)NC(=O)[C@H](CCC(=O)O)NC(=O)[C@H](Cc1ccc(OP(=O)(O)O)cc1)NC(C)=O)C(=O)N[C@@H](CCC(=O)O)C(N)=O).
T1 chain: Ac-[pY]EEIE-NH2
Nature of the experiment: competition binding assay (SH2scan, qPCR). (In qPCR the cycle at which signal appears reflects the starting amount.)

The next experiment deals with T2, caffeic acid-pYEEIE.
T2 chain: {caffeic acid}-[pY]EEIE
Nature of the experiment: competition binding assay (SH2scan, qPCR).

Broadly, the Kd is the equilibrium constant for the complex coming apart. A higher Kd goes with weaker binding.

B1: FES SH2 (protein)
chain: EQLWYHGAIPRAEVAELLVHSGDFLVRESQGKQEYVLSVLWDGLPRHFIIQSLDNLYRLEGEGFPSIPLLIDHLLSTQQPLTKKSGVVLHRAVPKD
B1 registered a dissociation constant Kd in the experiment with Ac-pYEEIE-NH2 of 4.2 µM.

B2: PIK3R3 C-terminal SH2 (protein)
chain: WFVEDINRVQAEDLLYGKPDGAFLIRESSKKGCYACSVVADGEVKHCVIYSTARGYGFAEPYNLYSSLKELVLHYQQTSLVQHNDSLNVRLAYPV
Turning to B2, the Kd with Ac-pYEEIE-NH2 was found to be 14.9 µM. This Kd lies about 3.5-fold higher than the previous one.

B3: YES SH2 (protein)
chain: AEEWYFGKMGRKDAERLLLNPGNQRGIFLVRESETTKGAYSLSIRDWDEIRGDNVKHYKIRKLDNGGYYITTRAQFDTLQKLVKHYTEHADGLCHKLTTVCPTV
The molecule B3 showed a Kd in the experiment with Ac-pYEEIE-NH2 of 3.8 µM.

B4: FYN SH2 (protein)
chain: AEEWYFGKLGRKDAERQLLSFGNPRGTFLIRESETTKGAYSLSIRDWDDMKGDHVKHYKIRKLDNGGYYITTRAQFETLQQLVQHYSERAAGLCCRLVVPCHKG
Take B4: the results for the Kd with Ac-pYEEIE-NH2 and with caffeic acid-pYEEIE were 3.3 µM and 0.00053 µM, respectively.
